Assay results as given in CN116926038A, “一种TrkA的抗原表位肽及其应用” (Guangdong HEC Pharmaceutical Co Ltd, priority 2022, dated 2023).
Ends that are not written are not given here.

Tests used:
[1] = target: binding of Human-TrKA receptor and its ligand Human-NGF (Human-TrKA受体与其配体Human-NGF结合) (Homo sapiens, UniProt P04629); assay: ELISA blocking of Human-TrKA/Human-NGF binding by serum of peptide-immunised rabbits (Example 19); settings: 300 μg each time
Human-TrKB = target: T1, Human-TrKB (Homo sapiens, UniProt Q16620); assay: ELISA binding of serum of peptide-immunised mice to Human-TrKB (Example 18); settings: serum dilutions 1:50 to 1:6400; blank serum as control
T1 construct: purchased Sino Biological 10047-H08H

Human-TrKC = target: T2, Human-TrKC (Homo sapiens, UniProt Q16288); assay: ELISA binding of serum of peptide-immunised mice to Human-TrKC (Example 18); settings: serum dilutions 1:50 to 1:6400; blank serum as control
T2 construct: purchased Sino Biological 10048-H08H

Human-P75 = target: T3, Human-P75 (Homo sapiens, UniProt P08138); assay: ELISA binding of serum of peptide-immunised mice to Human-P75 (Example 18); settings: serum dilutions 1:50 to 1:6400; blank serum as control
T3 construct: purchased Sino Biological 13184-H08H
T3 sequence (P08138 29-250 limits assumed): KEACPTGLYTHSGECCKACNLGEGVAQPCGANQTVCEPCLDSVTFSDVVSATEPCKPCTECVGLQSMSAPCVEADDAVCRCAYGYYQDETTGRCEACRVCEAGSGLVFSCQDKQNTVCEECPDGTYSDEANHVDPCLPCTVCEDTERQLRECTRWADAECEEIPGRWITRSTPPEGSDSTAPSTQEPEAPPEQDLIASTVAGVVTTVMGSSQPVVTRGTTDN

binding of Human-TrKA receptor and its ligand Human-NGF (Human-TrKA受体与其配体Human-NGF结合), sequence (P04629 33-796): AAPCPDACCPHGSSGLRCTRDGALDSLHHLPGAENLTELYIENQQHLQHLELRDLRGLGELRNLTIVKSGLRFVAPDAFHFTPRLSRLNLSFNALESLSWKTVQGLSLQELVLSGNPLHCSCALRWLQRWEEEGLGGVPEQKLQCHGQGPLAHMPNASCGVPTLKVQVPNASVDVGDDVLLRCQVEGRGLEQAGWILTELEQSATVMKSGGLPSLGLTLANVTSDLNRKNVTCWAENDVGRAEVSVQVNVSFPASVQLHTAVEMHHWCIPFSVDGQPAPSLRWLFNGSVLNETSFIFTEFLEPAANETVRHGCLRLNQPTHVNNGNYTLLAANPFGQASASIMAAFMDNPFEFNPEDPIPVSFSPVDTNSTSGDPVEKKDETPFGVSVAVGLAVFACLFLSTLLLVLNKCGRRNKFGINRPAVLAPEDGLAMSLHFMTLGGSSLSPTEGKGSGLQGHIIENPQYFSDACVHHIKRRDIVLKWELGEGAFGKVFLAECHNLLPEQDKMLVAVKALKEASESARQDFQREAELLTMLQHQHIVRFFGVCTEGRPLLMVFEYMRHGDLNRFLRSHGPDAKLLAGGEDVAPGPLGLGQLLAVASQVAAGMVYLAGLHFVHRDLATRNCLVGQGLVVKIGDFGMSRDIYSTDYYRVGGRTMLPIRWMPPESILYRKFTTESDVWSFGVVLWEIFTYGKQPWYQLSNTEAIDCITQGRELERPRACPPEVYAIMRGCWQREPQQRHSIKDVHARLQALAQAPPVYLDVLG
T2 sequence (Q16288 32-429 limits assumed): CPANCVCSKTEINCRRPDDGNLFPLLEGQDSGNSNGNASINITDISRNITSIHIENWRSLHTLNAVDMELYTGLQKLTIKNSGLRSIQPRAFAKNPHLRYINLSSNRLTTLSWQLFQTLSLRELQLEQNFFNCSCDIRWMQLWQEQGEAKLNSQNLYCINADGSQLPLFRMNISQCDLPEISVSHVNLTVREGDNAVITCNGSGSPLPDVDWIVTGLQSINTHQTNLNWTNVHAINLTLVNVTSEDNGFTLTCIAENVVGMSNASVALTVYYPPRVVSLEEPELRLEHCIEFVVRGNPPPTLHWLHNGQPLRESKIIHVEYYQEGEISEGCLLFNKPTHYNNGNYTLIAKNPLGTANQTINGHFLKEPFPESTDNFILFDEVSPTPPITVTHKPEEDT
T1 sequence (Q16620 32-430 limits assumed): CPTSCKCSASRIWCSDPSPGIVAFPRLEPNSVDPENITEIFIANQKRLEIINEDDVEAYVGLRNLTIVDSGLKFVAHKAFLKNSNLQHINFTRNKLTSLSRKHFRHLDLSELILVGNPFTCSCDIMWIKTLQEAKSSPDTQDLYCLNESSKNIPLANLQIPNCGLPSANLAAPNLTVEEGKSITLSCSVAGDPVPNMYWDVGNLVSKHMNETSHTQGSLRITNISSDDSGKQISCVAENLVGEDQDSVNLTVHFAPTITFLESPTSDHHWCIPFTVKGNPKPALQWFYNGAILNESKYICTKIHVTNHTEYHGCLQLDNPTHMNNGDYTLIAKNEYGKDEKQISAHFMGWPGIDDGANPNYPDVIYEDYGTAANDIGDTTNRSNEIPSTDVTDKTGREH

Substance: MAAFMDNPFEFNPED-C-KLH: 多肽MAAFMDNPFEFNPED-C-KLH (SEQ ID NO:18; 钥孔血蓝蛋白(KLH)) (not fully specified (C-terminus); also: KLH carrier conjugated via C-terminal Cys)
- Human-TrkA/Human-NGF binding signal (OD450) versus blank serum ([1]; immunised rabbit serum diluted 1:2): 显著性降低
- Human-TrkA/Human-NGF binding signal (OD450) versus blank serum ([1]; immunised rabbit serum, no dilution stated): 显著性降低
- binding of immunised mouse serum (Human-TrKB): 没有明显结合
- binding of immunised mouse serum (Human-TrKC): 没有明显结合
- binding of immunised mouse serum (Human-P75): 没有明显结合
